The source of these data is US20230265185A1 (NATIONAL RESEARCH COUNCIL OF CANADA, published 2023).

For assay [1], the target named is T1, hCD22 fragment Bin 7, IVR7 (aa561-668), displayed on yeast cells (human, UniProt P20273 580-687).
T1 construct: range 561-668; Range is counted on the mature ECD, not on the UniProt entry; on P20273 it would be 580-687 (my arithmetic); also called CD22 Sub-Domain 7; not shown: Aga2-HA display fusion partner of vector pPNL6; MYC tag
T1 sequence (looked up): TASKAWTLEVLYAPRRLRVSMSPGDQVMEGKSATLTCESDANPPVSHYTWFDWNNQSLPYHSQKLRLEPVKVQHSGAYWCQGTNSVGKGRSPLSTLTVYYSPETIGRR
Nature of the assay: yeast display cell ELISA, heat denatured cells (80 C, 30 min). As to the method: (§1) The YSD vector (pPNL6) was from The Pacific Northwest National Laboratory, USA. […] The HRP activity was assayed with substrate TMB (tetramethyl benzidine) according to the manufacture’s conditions and read at OD₄₅₀.
(§2) Table 7 depicts the assessment of the nature of the epitopes of CD22 sdAbs to determine if the epitopes for the sdAbs are continuous (linear) or non-continuous (conformational). […] The binding of each sdAb to native and denatured CD22 fragments was measured as OD₄₅₀, and the ratio of the binding to denatured CD22 to non-denatured CD22 was calculated, with the ratio ≥ 0.5 indicative linear (L), and the ratio < 0.5 indicative of conformational (C) epitopes.
(In general: An ELISA detects its analyte on a solid surface through an enzyme-linked reagent.)

In assay [2] the target is T2, hCD22 fragment Bin 6, IVR6 (aa476-575), displayed on yeast cells (human, UniProt P20273 495-594).
T2 construct: range 476-575; Range is counted on the mature ECD, not on the UniProt entry; on P20273 it would be 495-594 (my arithmetic); also called CD22 Sub-Domain 6; not shown: Aga2-HA display fusion partner of vector pPNL6; MYC tag
T2 sequence (looked up): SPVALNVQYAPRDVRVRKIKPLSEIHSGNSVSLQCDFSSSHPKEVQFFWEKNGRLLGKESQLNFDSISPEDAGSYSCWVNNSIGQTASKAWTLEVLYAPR
Nature of the assay: yeast display cell ELISA. On the procedure: as §1
(§3) The wells that gave rise to OD₄₅₀ above 0.25 were highlighted, indicating significant antibody-antigen interactions. All the sdAbs tested except hCd22_1ug-14 were assigned to specific Bin(s).

The target of assay [3] is T2, hCD22 fragment Bin 6, IVR6 (aa476-575), …. Nature of the assay: yeast display cell ELISA, heat denatured cells (80 C, 30 min). As to the method:
as §1, §2

Assay [4] addresses T3, hCD22 fragment Bin 4, IVR4 (aa303-405), displayed on yeast cells (human, UniProt P20273 322-424).
T3 construct: Range is counted on the mature ECD, not on the UniProt entry; on P20273 it would be 322-424 (my arithmetic); also called CD22 Sub-Domain 4; not shown: Aga2-HA display fusion partner of vector pPNL6; MYC tag
T3 sequence (looked up): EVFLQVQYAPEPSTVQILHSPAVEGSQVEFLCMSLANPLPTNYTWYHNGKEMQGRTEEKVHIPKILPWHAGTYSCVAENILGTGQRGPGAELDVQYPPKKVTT
In words: yeast display cell ELISA, biotinylated sdAb 250 nM. As to the method:
as §1, §3

The target in assay [5] is T3, hCD22 fragment Bin 4, IVR4 (aa303-405), …. In words: yeast display cell ELISA, native cells. On the procedure: as §1, §2
Assay [6] has the same target. Nature of the assay: yeast display cell ELISA, OD on denatured over non-denatured CD22 fragment. On the procedure:
as §1, §2

Assay [7] has as its target T4, hCD22 fragment Bin 1, IVR1 (aa1-135), displayed on yeast cells (human, UniProt P20273 20-154).
T4 construct: range 1-135; Range is counted on the mature ECD, not on the UniProt entry; on P20273 it would be 20-154 (my arithmetic); also called CD22 Sub-Domain 1; not shown: Aga2-HA display fusion partner of vector pPNL6; MYC tag
T4 sequence (looked up): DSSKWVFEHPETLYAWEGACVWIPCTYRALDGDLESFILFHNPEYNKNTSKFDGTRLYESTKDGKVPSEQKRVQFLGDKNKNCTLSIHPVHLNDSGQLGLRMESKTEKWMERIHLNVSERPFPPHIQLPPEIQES
In words: yeast display cell ELISA, biotinylated sdAb 250 nM. On the procedure: as §1, §3

The target of assay [8] is T4, hCD22 fragment Bin 1, IVR1 (aa1-135), …. In words: yeast display cell ELISA, native cells. On the procedure:
as §1, §2

Assay [9] shares this target. Nature of the assay: yeast display cell ELISA, OD on denatured over non-denatured CD22 fragment. On the procedure: as §1, §2
In assay [10] the target is T5, full-length hCD22-ECD (668aa) displayed on yeast cells (human, UniProt P20273 20-687).
T5 construct: extracellular domain; Yeast surface display fusion Aga2-HA-(insert)-MYC; also called Bin 8; CD22-ECD Full lenght; not shown: Aga2-HA display fusion partner of vector pPNL6; MYC tag
T5 sequence (looked up): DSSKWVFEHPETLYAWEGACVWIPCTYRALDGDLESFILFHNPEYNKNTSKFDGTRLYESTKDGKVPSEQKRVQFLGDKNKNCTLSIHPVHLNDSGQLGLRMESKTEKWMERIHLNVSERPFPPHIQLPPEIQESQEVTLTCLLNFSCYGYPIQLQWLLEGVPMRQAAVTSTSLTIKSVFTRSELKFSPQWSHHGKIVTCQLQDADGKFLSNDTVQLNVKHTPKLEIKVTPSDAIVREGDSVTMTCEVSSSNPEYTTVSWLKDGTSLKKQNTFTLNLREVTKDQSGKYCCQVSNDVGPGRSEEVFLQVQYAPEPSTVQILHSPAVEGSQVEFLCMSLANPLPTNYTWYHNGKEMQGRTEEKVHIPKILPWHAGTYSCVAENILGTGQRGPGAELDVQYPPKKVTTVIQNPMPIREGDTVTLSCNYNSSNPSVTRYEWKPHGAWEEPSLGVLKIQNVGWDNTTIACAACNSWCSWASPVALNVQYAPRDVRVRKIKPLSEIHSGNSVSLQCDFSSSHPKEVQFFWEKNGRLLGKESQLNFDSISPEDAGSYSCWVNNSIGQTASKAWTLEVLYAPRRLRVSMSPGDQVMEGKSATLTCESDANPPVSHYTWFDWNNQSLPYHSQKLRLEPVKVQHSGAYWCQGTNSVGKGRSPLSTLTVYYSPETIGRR
In words: yeast display cell ELISA, native cells. On the procedure: as §1, §2

B1: hCD221ug-10 (VHH)
VHH: QVQLVESGGGLVQAGGSLSVSCTASESTFSIMMGWFRQAPGKQREMVAVINSAGSTNYADSAEGRFTISRDLAKKTVSLQMNSLKPEDTAVYYCYVDGYFGQGTQVTVSS
modifications: single biotin at the VHH C-terminal (biotinylation signal sequence)
notes: llama VHH, expressed in E. coli TG1, IMAC purified, monomeric SEC fraction; also called VHH # 23; 5-hCD22 1ug-10
Turning to B1, the “Heat Inactivated CD22 OD” value in assay [1] was 0.32 OD450. Besides, in [2], the binding result was “no binding (tested: OD450 not above 0.25; sdAb 250 nM)”.

B2: hCD221ug-61 (VHH)
VHH: QVQLVESGGGLVQAGGSLRLSCAASMSSFSQYVMYWYRQAPGKQRELVATITSYSNTNYADSVKGRFTISRDNAKSIAYLQMDSLKPEDTAVYYCNAQYGSTFIRNHWDDWGQGTQVTVSS
modifications: single biotin at the VHH C-terminal (biotinylation signal sequence)
notes: llama VHH, expressed in E. coli TG1, IMAC purified, monomeric SEC fraction; also called VHH # 14; 3-hCD22 1ug-61
Consider B2, for which the “Heat Inactivated CD22 OD” value in assay [1] was 2.33 OD450. Further, in assay [2], the binding result is given as “no binding (tested: OD450 not above 0.25; sdAb 250 nM)”.

B3: hCD22pas-64 (VHH)
VHH: QVQLVESGGGLVQAGGSLRLSCAASGSTFSLNTMAWYRQAPGNQREYVAAASSDGYTNYADSVRGRFTISRDNDKNTMYLQMNSLRPEDTAVYYCTWGTGRFADYIYWGQGTQVTVSS
modifications: single biotin at the VHH C-terminal (biotinylation signal sequence)
notes: llama VHH, expressed in E. coli TG1, IMAC purified, monomeric SEC fraction; also called VHH # 25; 7-hCD22 pas-64
In the case of B3, in assay [3], the “Heat Inactivated CD22 OD” value came out at 2.04 OD450.

B4: hCD221ug-13 (VHH)
VHH: QVQLVESGGGLVQAGDSLRLSCAGSGGSFSSVTMAWFRQAPGKDREFVAAITWSSPSTYYADSVKGRFTISRDNAKNTVYLQMNSLKPEDTAVYYCAGGRTGRGTSADTDEYNYWGQGTQVTVSS
modifications: single biotin at the VHH C-terminal (biotinylation signal sequence)
notes: llama VHH, expressed in E. coli TG1, IMAC purified, monomeric SEC fraction; also called VHH # 21; 1-hCD22 1ug-13
In assay [4], B4 displayed an OD450 of 0.752 OD450. The “Heat Inactivated CD22 OD” value in assay [3] worked out at 0.272 OD450. For the same molecule, the “Non denatured CD22 OD” value in assay [5] turned out to be 1.23 OD450. For the same molecule, the “CD22 Ratio (D/ND)” value in assay [6] was found to be 0.557.

B5: hCD221ug-80 (VHH)
VHH: QVQLVESGGGLVQPGGSLRLSCTFSGFTLDYYVMVWFRQAPGKEREAVSCITSDGVTYYADSVKGRFTISRDNAKNTVYLQMNRVKPEDTAVYYCAVDKPFYDGGIQYTCPVDFDSWGQGAQVTVSS
modifications: single biotin at the VHH C-terminal (biotinylation signal sequence)
notes: llama VHH, expressed in E. coli TG1, IMAC purified, monomeric SEC fraction; also called VHH # 1; 2-hCD22 1ug-80
Take B5: the OD450 in assay [7] stood at 2.03 OD450. The “Heat Inactivated CD22 OD” value in assay [3] was determined as 2.62 OD450. In addition, in [8], the “Non denatured CD22 OD” value was 2.32 OD450. Besides, the “CD22 Ratio (D/ND)” value in assay [9] came to 0.762.

B6: hCD22pas-24 (VHH)
VHH: QVQLVESGGGLVQAGGSLRLSCSASGITSSINSMGWHRQAPGKQRELVASIGRGGSGSTKYADSGKGRFLISRDNNKNILFLEMNSLKPEDTADYYCLEVTTDLSSYWGRGTQVTVSS
modifications: single biotin at the VHH C-terminal (biotinylation signal sequence)
notes: llama VHH, expressed in E. coli TG1, IMAC purified, monomeric SEC fraction; also called VHH # 26; 8-hCD22 pas-24
In the case of B6, the “Heat Inactivated CD22 OD” value in assay [1] turned out to be 2.11 OD450.

B7: hCD22pas-32 (VHH)
VHH: QVQLVESGGGLVQAGGSLRLSCAVSGRIFRSYVLGWFRQAPGKERELVARIGWSDTYYADSVKGRFTISRDNAKNTVDLQMNSLKPEDTAVYYCAANSPPYGPQRDEFGYWGQGTQVTVSS
modifications: single biotin at the VHH C-terminal (biotinylation signal sequence)
notes: llama VHH, expressed in E. coli TG1, IMAC purified, monomeric SEC fraction; also called VHH # 15; 6-hCD22 pas-32
In the case of B7, the “Non denatured CD22 OD” value in [10] came to 0.789 OD450.

B8: hCD221ug-36 (VHH)
VHH: EVQLVDSGGGLVQAGGSLRVSCEASGITFSRAAMGWYRQRPGKERERVAVVNSDSSTIYADSVKGRFTISRDNAKNTVYLQMNSLEPEDTAVYYCWSPGFGSYWGQGTQVTVSS
modifications: single biotin at the VHH C-terminal (biotinylation signal sequence)
notes: llama VHH, expressed in E. coli TG1, IMAC purified, monomeric SEC fraction; also called VHH # 22; 4-hCD22 1ug-36
On to B8, for which, in assay [3], the “Heat Inactivated CD22 OD” value was 3.5 OD450.
